According to patent US20130115627A1 (AGENCY FOR SCIENCE TECHNOLOGY AND RESEARCH, published 2013):

Molecular target: T1, PODXL on the surface of hESCs (human, UniProt O00592 23-558, glycosylated (sites not given))
T1 construct: also called human embryonic stem cells
T1 sequence: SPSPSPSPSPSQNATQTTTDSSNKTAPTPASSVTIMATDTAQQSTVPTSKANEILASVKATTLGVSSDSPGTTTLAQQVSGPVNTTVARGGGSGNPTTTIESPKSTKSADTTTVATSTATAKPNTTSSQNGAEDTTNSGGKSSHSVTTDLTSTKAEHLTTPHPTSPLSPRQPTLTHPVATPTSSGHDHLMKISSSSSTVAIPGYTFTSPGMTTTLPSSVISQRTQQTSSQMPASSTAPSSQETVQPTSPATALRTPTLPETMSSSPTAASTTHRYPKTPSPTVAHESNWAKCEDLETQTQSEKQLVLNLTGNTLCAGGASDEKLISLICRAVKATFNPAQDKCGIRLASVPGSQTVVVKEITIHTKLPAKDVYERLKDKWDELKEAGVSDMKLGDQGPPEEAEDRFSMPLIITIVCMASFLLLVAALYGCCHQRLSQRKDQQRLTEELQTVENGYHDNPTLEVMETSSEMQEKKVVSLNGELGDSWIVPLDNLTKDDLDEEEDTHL
Assay: kinetics of binding to PODXL on the surface of hESCs; method not stated

Kd: 40 nM | koff: 0.0029 s⁻¹ | kon: 71000 M⁻¹ s⁻¹
B1: mAb 84 (antibody, V domains shown)
VH: QVQLQQSGGGLVQPGGSMKLSCVASGFTFSNYWMNWVRQSPEKGLEWVAEIRLKSNNYATHYAESVKGRFTISRDDSKSSVYLQMNNLRAEDTGIYYCTGERAWGQGTTVTVSS
VL: DIELTQSPAIMSASPGEKVTMTCSASSSVNYMYWYQQKPGSSPRLLIYDTSNLASGVPVRFSGSGSGTSYSLTISRMEAEDAATYYCQQWSSYPYTFGGGTKLEIKR
